In paper PMC6982540 one finds koff data, which are given here for 1 substance.

This test deals with His-PTP1B (residues 1–321), reversibly oxidized and phosphorylated on Ser50 (UniProt P18031). The test can be described thus: SPR.
Sequence of UniProt P18031 (P18031 1-321): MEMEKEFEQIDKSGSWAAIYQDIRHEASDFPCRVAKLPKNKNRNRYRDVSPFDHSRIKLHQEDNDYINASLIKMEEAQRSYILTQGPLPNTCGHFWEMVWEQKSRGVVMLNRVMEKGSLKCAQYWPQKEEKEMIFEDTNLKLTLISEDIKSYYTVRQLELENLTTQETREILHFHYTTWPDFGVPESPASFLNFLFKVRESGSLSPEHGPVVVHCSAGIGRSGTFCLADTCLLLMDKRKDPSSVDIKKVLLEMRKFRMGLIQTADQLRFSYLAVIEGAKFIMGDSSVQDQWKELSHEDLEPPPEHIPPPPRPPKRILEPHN

“GST-14-3-3-ζ (from UniProt P63104 1-245) (natural protein)” returned a koff of 0.00458 s⁻¹.
